Experimental findings from paper doi:10.1101/2025.03.06.641832 (bioRxiv, 2025) are described below.

The data set deals with the molecule itself. The data set can be described thus: SEC. Background: In gel filtration, larger molecules generally elute earlier.

B1: recombinant WT influenza A NP (NΔ7NP, C-terminal His tag) (natural protein)
chain: RSYEQMETDGERQNATEIRASVGKMIGGIGRFYIQMCTELKLSDYEGRLIQNSLTIERMVLSAFDERRNKYLEEHPSAGKDPKKTGGPIYRRVDGKWMRELILYDKEEIRRIWRQANNGDDATAGLTHMMIWHSNLNDATYQRTRALVRTGMDPRMCSLMQGSTLPRRSGAAGAAVKGVGTMVMELIRMIKRGINDRNFWRGENGRRTRIAYERMCNILKGKFQTAAQRAMVDQVRESRNPGNAEFEDLIFLARSALILRGSVAHKSCLPACVYGPAVASGYDFEREGYSLVGIDPFRLLQNSQVYSLIRPNENPAHKSQLVWMACHSAAFEDLRVSSFIRGTKVVPRGKLSTRGVQIASNENMETMESSTLELRSRYWAIRTRSGGNTNQQRASSGQISIQPTFSVQRNLPFDRPTIMAAFTGNTEGRTSDMRTEIIRLMESARPEDVSFQGRGVFELSDEKAASPIVPSFDMSNEGSYFFGDNAEEYDN
On to B1, for which the binding result is recorded as “binds”.
